Literature values as cited in PMC9441699 (Frontiers in Cellular and Infection Microbiology, 2022).

Test system: pseudotyped SARS-CoV

B1: Lactoferrin: antiviral milk protein (protein, UniProt P02788 20-710, looked up)
Lactotransferrin: GRRRSVQWCAVSQPEATKCFQWQRNMRKVRGPPVSCIKRDSPIQCIQAIAENRADAVTLDGGFIYEAGLAPYKLRPVAAEVYGTERQPRTHYYAVAVVKKGGSFQLNELQGLKSCHTGLRRTAGWNVPIGTLRPFLNWTGPPEPIEAAVARFFSASCVPGADKGQFPNLCRLCAGTGENKCAFSSQEPYFSYSGAFKCLRDGAGDVAFIRESTVFEDLSDEAERDEYELLCPDNTRKPVDKFKDCHLARVPSHAVVARSVNGKEDAIWNLLRQAQEKFGKDKSPKFQLFGSPSGQKDLLFKDSAIGFSRVPPRIDSGLYLGSGYFTAIQNLRKSEEEVAARRARVVWCAVGEQELRKCNQWSGLSEGSVTCSSASTTEDCIALVLKGEADAMSLDGGYVYTAGKCGLVPVLAENYKSQQSSDPDPNCVDRPVEGYLAVAVVRRSDTSLTWNSVKGKKSCHTAVDRTAGWNIPMGLLFNQTGSCKFDEYFSQSCAPGSDPRSNLCALCIGDEQGENKCVPNSNERYYGYTGAFRCLAENAGDVAFVKDVTVLQNTDGNNNEAWAKDLKLADFALLCLDGKRKPVTEARSCHLAMAPNHAVVSRMDKVERLKQVLLHQQAKFGRNGSDCPDKFCLFQSETKNLLFNDNTECLARLHGKTTYEKYLGPQYVAGITNLKKCSTSPLLEACEFLRK
Question: Which “inhibition of pseudotyped SARS-CoV” value does the source give for B1 here?
Answer: Its value is 50%.
